From patent US9944712B2, “TLR3 binding agents” (INNATE PHARMA, priority 2012, dated 2018)
Changes are numbered by the printed parent chain. Blank lines part the entries; values can stand above or below the molecule they belong to.

Tests used:
COPD mouse model = COPD mouse model (Elastin and LPS); assay type: in vivo; settings: drug combination study, FIG. 5E
Procedure: All mice were treated at days 0, 7, 14 and 21 with Elastin and LPS (i.n.), to induce COPD. At day 28 mice were sacrificed for analysis.
The cellular infiltrates into airways was measured by analysis of bronchoalveolar lavage (BAL) fluid by differential cell count on day 28. The oxygenation of venous blood was measured by gasometry on day 28. The level inflammatory mediators in BALF, through the analysis for protein levels of TNF-alpha, IL-6, IL-17A and IP-10 was performed by multiplex assay. […] Statistical analysis was performed on all data utilizing a Student's t test: ‘*’ p<0.05; ‘**’ p<0.005; ‘***’ p<0.0005.
Four groups of mice were treated as follows: • 1 group of mice with a vehicle (PBS, i.p., twice per week). • 1 group of mice with the anti-mouse TLR3 28G7 antibody administration (i.p., 500 μg/per mouse, […]; antagonist of PDE-4) (3 mg/kg, oral, five times per week). • 1 group of mice with both roflumilast and 28G7 antibody, each agent according to the schedule used as single agent.
All mice were treated with Elastin and LPS (i.n.), to induce COPD and sacrificed as in study A.
The cellular infiltrates into airways was measured by analysis of bronchoalveolar lavage (BAL) fluid by differential cell count as in Study A.

[1] = molecular target: T1, human TLR3 solely at the cell surface (TLR3/CD32-expressing 293T cells) (Homo sapiens, UniProt O15455); experiment: Titration on HEK293T cells expressing TLR3 ECD-CD32 solely at the cell surface (FACS); assay type: binding; settings: neutral pH
T1 construct: transiently transfected with the wild-type or mutant TLR3 ECD-CD32 construct; expressed in transfected cells; host or cells: HEK293T, transient, pcDNA3.1
Procedure: (§1) The mature wild-type or mutant TLR3 sequence was fused to the CD32 transmembrane and intracellular domains as described by De Bouteiller et al. (2005) J. Biol. Chem. 280(46): 38133-38145. A first round of PCR was performed to introduce a V5 tag in N-terminal position of the TLR3-CD32 fusion protein and a second round—using the first PCR as a template—to introduce the TLR3 leader peptide in the construct. The PCR product was TA-cloned into the pGEMTeasy vector for sequencing and finally cloned into the pcDNA3.1 vector using the NheI and NotI restriction sites.
(§2) Following two wash cycles, cell MFI was analyzed on a FACS Canto II cytometer. With the aim to study the effect of pH on mAb affinity, staining was performed in staining buffer (0.2% BSA, 2 mM EDTA, 0.02% Sodium Azoture) pH7.4 or in citric acid-acidified staining buffer pH5.6.
Additionally, binding (e.g. affinity) to cell surface TLR3 at neutral pH may differ from that of endosomally-expressed TLR3 at acidic pH. Antibodies were tested for binding to cells expressing human TLR3 solely at the cell surface (TLR3/CD32-expressing 293T cells), at neutral pH conditions since pH could potentially affect TLR3 conformation.

TLR3 mutant polypeptides = experiment: FACS staining of cells expressing TLR3 mutant polypeptides (epitope mapping); assay type: binding, human; settings: for binding to wild type TLR3 and mutants K145E, D116R, E171A, K182E or N196A: FACS; for binding to TLR3 in presence of the mutation K145E or K182E: hybridoma clone screening
Procedure: Mutagenesis was performed on wild type human TLR3 inserted into a pcDNA3.1 vector. After sequencing, the vectors containing the mutated sequences were prepared as Maxiprep using the Promega PureYield™ Plasmid Maxiprep System. Vectors were then used for HEK-293T cell transfection using Invitrogen's Lipofectamine 2000 according to the manufacturer instructions.
All the Mx-R primers were used with the following 5′ primer […] (SEQ ID NO: 121). All the Mx-F primers were used with the following 3′ primer […] (SEQ ID NO: 122). The sequences amplified were run on agarose gel then purified using the Qiagen Gel Extraction kit. The two PCR product generated for each mutant were then ligated into a pcDNA3.1 vector, digested with the restriction enzyme NheI and NotI, with the InFusion system (Clontech) according to the manufacturer's instructions.
After sequencing, the vectors containing the mutated sequences were prepared as Maxiprep using the Promega PureYield™ Plasmid Maxiprep System. Vectors were then used for HEK-293T cell transfection using Invitrogen's Lipofectamine 2000 according to the manufacturer instructions.
as §1, §2
Secondary screening was performed as in immunization #1, above. Potentially interesting hybridomas were cloned by limiting dilution techniques in 96-wells plates, and clones were tested in the same series of secondary screens as for hybridomas. With the aim to compare hybridomas to our reference anti-TLR3 mAbs, the hybridomas were amplified and their supernatants were purified. Purified mAbs were tested in a gene-reporter assay.
Antibodies were then tested for binding to further set of mutants in the N-terminal portion of TLR3 to identify new epitopes. Antibodies were therefore tested for binding to TLR3 mutants. TLR3 mutant polypeptides having mutations in positions Q44H and V45I, R64Q and R65Q, T86S and K89Q, K97I and M100L, K117Q and A120V, Q136H, N140S, V144K and K145N, K147A, K163A, Q167G, Q184L and K187R, Q184L and K187Q, D192E and A195G, Q208P and 1209L, H218Q, A219T, G234N and S236H, L243W and A246S, S112A. Q113S. and S115A, and K137S and K139A (reference to SEQ ID NO: 1) were prepared as described herein in the Materials and Methods and anti-TLR3 antibody staining to cells expressing TLR3 mutant polypeptides was assessed by FACS.

human TLR3 = human TLR3 (Homo sapiens, UniProt O15455); experiment: 293T-TLR3-ISRE luciferase reporter assay; assay type: cell-based; settings: dsRNA TLR3 agonists
Excerpt: A reporter gene assay using as promoter ISRE (IFN-stimulated response element) and as reporter gene and protein luciferase was set up. A 293T cell line (ATCC, #CRL-1573) was stably transfected with pISRE-luc plasmid (#219089—Stratagene), further selected by cloning as inducing optimal response to IFN-alpha stimulation and referred to as control 293T-ISRE. This cell line was further stably transfected with pUNO-humanTLR3 plasmid (#puno-htlr3—InVivogen) and referred to as 293T-TLR3-ISRE.
Efficacy assay was performed as described: on day 0, cells are seeded at 4×10^5 cells/mL in complete culture medium in 96-well culture plate (100 μl/well). Cells are first incubated at 37° C. for 20 hours, then 50 μL of medium are discarded and cells are activated with 25 μl/well final of fixed amounts of polyAU together with increasing concentrations of anti-TLR3 antibodies. Cells incubated with fresh medium will be used as background luciferase activity (50 μl/well). Cells are incubated at 37° C. for 6 hours. 100 μL of freshly thawed Steady Glo (Promega) are added to each well, plates were incubated 10 min at RT in the dark and the light emitted in each well is quantified as Count Per Second (CPS) on a gamma-counter (TopCount) apparatus.
Antibodies were tested for inhibition of TLR3 signaling in a luciferase based reporter gene activity (293T-TLR3-ISRE). Engagement of TLR3 receptor using TLR3-agonists such as poly (I:C) has been reported to activate the type-IFN pathway including the promoter ISRE (Wietek et al. J. Biol. Chem., 278 (51), p50923, 2003). Briefly, dsRNA TLR3 agonists were used to induce TLR3 signaling in the reporter assay in the presence of anti-TLR3 antibodies, and TLR3 signaling was assessed. […] Each antibody is compared with reference antibody 31C3.

Molecule: O=C(Nc1c(Cl)cncc1Cl)c1ccc(OC(F)F)c(OCC2CC2)c1 [Roflumilast, roflumilast]
infiltration of neutrophils into the airways (BAL differential cell count) (COPD mouse model; 28G7 i.p. 500 μg twice per week, roflumilast 3 mg/kg oral five times per week): decreased infiltration of neutrophils | BAL macrophages and lymphocytes (COPD mouse model): decreases in macrophages

B1: 11E1: mouse anti-human TLR3 monoclonal antibody; VH SEQ ID NO: 3, VL SEQ ID NO: 4 (antibody, listed as Mus musculus, V domains shown)
VH: QVQLQQPGAELVRPGASVKLSCKASGYTFTNYWMNWVKQRPGQGLEWIGMIDPSDSETHYNQMFKDKATLTVDKSSSTAYMQLSSLTSEDSAVYYCARGGASSDYYYFDYWGQGTTLTVSSASTK
VL: ETTVTQSPASLSMAIGEKVTIRCITSTDIHDDINWYQQKPGEPPKLLISEGNTLRPGVPSRFSSSGYGTDFVFTIENMLSEDVADYYCLQSDNLPRTFGGGTKLEIKRT
binding to surface-expressed human TLR3 [1]: strong binding | binding to wild type TLR3 and mutants K145E, D116R, E171A, K182E or N196A (TLR3 mutant polypeptides): did not show any loss of binding | binding to TLR3 in presence of the mutation K145E or K182E (TLR3 mutant polypeptides): bound TLR3 | inhibition of dsRNA-induced TLR3 signaling, potency compared with antibody 31C3 (human TLR3): more potent

B2: 37B7: rat anti-human TLR3 monoclonal antibody; VH SEQ ID NO: 36, VL SEQ ID NO: 37 (antibody, listed as Rattus norvegicus, V domains shown)
VH: QVQLQQSGTELVKPGSSVKISCKASGYTFTSNYMHWIRQLPGNGLEWIGWIFPGDGDTNYNQKFNGKATLTADKSSSTAYMQLSSLTSEDYAVYFCARSDGDWYFDFWGPGTMVTVSS
VL: DIQMTQSPGSLSASLGETVTIQCQASEDIYSGLAWYQQKPRKSPQLLISAASRLQDGVPSRFSGSGSGTQYSLKISSMQTEDEGVYFCQQGVKYPNTFGPGTKLELK
binding to wild type TLR3 and mutants K145E, D116R, E171A, K182E or N196A (TLR3 mutant polypeptides): did not show any loss of binding | binding to TLR3 in presence of the mutation K145E or K182E (TLR3 mutant polypeptides): bound TLR3 | inhibition of dsRNA-induced TLR3 signaling, potency compared with antibody 31C3 (human TLR3): more potent

B3: 32C4: rat anti-human TLR3 monoclonal antibody; VH SEQ ID NO: 25, VL SEQ ID NO: 26 (antibody, listed as Rattus norvegicus, V domains shown)
VH: EVQLQQYGAELGKPGTSVKLSCKVSGYNIWSTYIYWVNQRPGKGLEWIGRIDPANGNTIYAEKFKTKATLTADTSSNTAYMQLSQLKSDDTAIYFCAMGDHGGYVMDAWGQGASVTVSS
VL: DIQMTQSPGSLSASLGETVSIECLASEDIYSYLAWYQQKPGKSPQLLIYAANRLEDGVPSRFSGSGSGTQYSLKISGMQPEDEGDYFCLQGSEFPYTFGTGTKLELK
binding to surface-expressed human TLR3 [1]: strong binding | binding to wild type TLR3 and mutants K145E, D116R, E171A, K182E or N196A (TLR3 mutant polypeptides): did not show any loss of binding | binding to TLR3 in presence of the mutation K145E or K182E (TLR3 mutant polypeptides): bound TLR3 | inhibition of dsRNA-induced TLR3 signaling, potency compared with antibody 31C3 (human TLR3): more potent

Second part, led by results:

binding to surface-expressed human TLR3 [1]: strong binding | inhibition of dsRNA-induced TLR3 signaling, potency compared with antibody 31C3 (human TLR3): more potent
B4: 7G11: rat anti-human TLR3 monoclonal antibody; VH SEQ ID NO: 47, VL SEQ ID NO: 48 (antibody, listed as Rattus norvegicus, V domains shown)
VH: EVQLQQYGAELGKPGTSVKLSCKVSGYNITYTYMHWVNQRPGKGLEWIGRIDPANGNTIYGEKFKNKATLTADTSSNTAYMQLSQLKSDDTAIYFCAMGEFDYFDHWGQGVMVTVSS
VL: DIQMTQSPASLSASLGETVSIECLASEDISNDLAWYQQKSGKSPQVLIYAASRLEDGVPSRFSGSGSGTRYSLKISGMQPEDEADYFCQQSYKYPVTFGSGTKLEIK
binding to wild type TLR3 and mutants K145E, D116R, E171A, K182E or N196A (TLR3 mutant polypeptides): did not show any loss of binding | binding to TLR3 in presence of the mutation K145E or K182E (TLR3 mutant polypeptides): bound TLR3

binding to surface-expressed human TLR3 [1]: strong binding | inhibition of dsRNA-induced TLR3 signaling, potency compared with antibody 31C3 (human TLR3): more potent
B5: 31F6: rat anti-human TLR3 monoclonal antibody; VH SEQ ID NO: 14, VL SEQ ID NO: 15 (antibody, listed as Rattus norvegicus, V domains shown)
VH: EVQLQQSGAELGKPGTSVKLSCKVSGYNIRYTYMHWVNQRPGKGLEWIGRIDPANGDSIYGEDFKTKATLTADTSSNTAYMQLSQLKSDDTAIYFCAMGEFDYFDYWGQGVMVTVSSASTK
VL: B4 VL with A9P, D28G, K39R, V46L, E55Q, S91N, V96L
binding to wild type TLR3 and mutants K145E, D116R, E171A, K182E or N196A (TLR3 mutant polypeptides): did not show any loss of binding | binding to TLR3 in presence of the mutation K145E or K182E (TLR3 mutant polypeptides): bound TLR3
